From patent publication US9481899B2, “Methods and compositions for producing hydrocarbons” (priority 2008, dated 2016)

Key:
Format in all cases: cell-based
E. coli MG1655 [1] = assay: Heterologous expression of aldehyde-generating enzyme alone in E. coli, GC-MS of fatty aldehydes and fatty alcohols
Experimental: (§1) The genomic DNA encoding Synechococcus elongatus PCC7942 orf1594 (YP_400611; putative aldehyde-generating enzyme) (SEQ ID NO:65) was amplified and cloned into the NcoI and EcoRI sites of vector OP-80 (pCL1920 derivative) under the control of the Ptrc promoter. The resulting construct (“OP80-PCC7942_1594”) was transformed into E. coli MG1655 and the cells were grown at 37° C. in M9 minimal media with 1% (w/v) glucose as carbon source and supplemented with 100 μg/mL spectinomycin. When the culture reached OD600 of 0.8-1.0, it was induced with 1 mM IPTG and cells were grown for an additional 18-20 h at 37° C. Cells from 0.5 mL of culture were extracted with 0.5 mL of ethyl acetate. After sonication for 60 min, the sample was centrifuged at 15,000 rpm for 5 min. The solvent layer was analyzed by GC-MS as described in Example 1.
The genomic DNA encoding Cyanothece sp. ATCC51142 cce_1430 (YP_001802846; putative aldehyde-generating enzyme) (SEQ ID NO:69) was amplified and cloned into the NcoI and EcoRI sites of vector OP-80 (pCL1920 derivative) under the control of the Ptrc promoter. The resulting construct was transformed into E. coli MG1655 and the cells were grown at 37° C. in M9 minimal media with 1% (w/v) glucose as carbon source and supplemented with 100 μg/mL spectinomycin. The cells were cultured and extracted as in Example 3 and analyzed by GC-MS as described in Example 26.
The genomic DNA encoding P. mariunus CCMP1986 PMM0533 (NP_892651; putative aldehyde-generating enzyme) (SEQ ID NO:71) and Prochlorococcus mariunus CCMP1986 PMM0532 (NP_892650; putative decarbonylase) (SEQ ID NO:19) were amplified and cloned into the NcoI and EcoRI sites of vector OP-80 and the NdeI and XhoI sites of vector OP-183, respectively. The resulting constructs were separately transformed and cotransformed into E. coli MG1655 and the cells were grown at 37° C. in M9 minimal media supplemented with 100 μg/mL spectinomycin and 100 μg/mL carbenicillin. The cells were cultured and extracted as in Example 3 and analyzed by GC-MS as described in Example 26.
The genomic DNA encoding Synechocystis sp. PCC6803 sll0208 (NP_442147; putative fatty aldehyde decarbonylase) (SEQ ID NO:3) was synthesized and cloned into the NdeI and XhoI sites of vector OP-183 (pACYC derivative) under the control of the Ptrc promoter. The genomic DNA encoding Synechocystis sp. PCC6803 sll0209 (NP_442146; acyl-ACP reductase) (SEQ ID NO:67) was synthesized and cloned into the NcoI and EcoRI sites of vector OP-183 (pACYC derivative) under the control of the Ptrc promoter. The resulting constructs were cotransformed with into E. coli MG1655 ΔfadE lacZ::Ptrc ′tesA-fadD. […] The cells were cultured and extracted as in Example 3 and analyzed by GC-MS as described in Example 26.

E. coli MG1655 [2] = assay: Coexpression of decarbonylase and aldehyde-generating enzyme in E. coli, GC-MS of hydrocarbons; conditions: for Production of Alkanes and Alkenes: alkane/alkene biosynthetic polypeptide coexpressed in E. coli with the aldehyde biosynthetic polypeptide of the same table row; for fatty aldehyde decarbonylase activity in E. coli: cotransformed with S. elongatus PCC7942_1594 into E. coli MG1655, M9 minimal media, 37° C.
From the text: Seven cyanobacteria, whose complete genome sequences are publicly available, were selected for verification and/or detection of alkane biosynthesis: Synechococcus elongatus PCC7942, Synechococcus elongatus PCC6301, Anabaena variabilis ATCC29413, Synechocystis sp. PCC6803, Nostoc punctiforme PCC73102, Gloeobacter violaceus ATCC 29082, and Prochlorococcus marinus CCMP1986. Only the first three cyanobacterial strains from this list had previously been reported to contain alkanes (Han et al., J. Am. Chem. Soc. 91:5156-5159 (1969); Fehler et al., Biochem. 9:418-422 (1970)). The strains were grown photoautotrophically in shake flasks in 100 mL of the appropriate media (listed in Table 8) for 3-7 days at 30° C. at a light intensity of approximately 3,500 lux. Cells were extracted for alkane detection as follows: cells from 1 mL culture volume were centrifuged for 1 min at 13,000 rpm, the cell pellets were resuspended in methanol, vortexed for 1 min and then sonicated for 30 min. After centrifugation for 3 min at 13,000 rpm, the supernatants were transferred to fresh vials and analyzed by GC-MS. The samples were analyzed on either 30 m DP-5 capillary column (0.25 mm internal diameter) or a 30 m high temperature DP-5 capillary column (0.25 mm internal diameter) using the following method.
After a 1 μL splitless injection (inlet temperature held at 300° C.) onto the GC/MS column, the oven was held at 100° C. for 3 mins. The temperature was ramped up to 320° C. at a rate of 20° C./min. The oven was held at 320° C. for an additional 5 min. The flow rate of the carrier gas helium was 1.3 mL/min. The MS quadrapole scanned from 50 to 550 m/z. Retention times and fragmentation patterns of product peaks were compared with authentic references to confirm peak identity.
as §1
The genomic DNA encoding Synechococcus elongatus PCC7942 orf1593 (YP_400610; putative decarbonylase) (SEQ ID NO:1) was amplified and cloned into the NdeI and XhoI sites of vector OP-183 (pACYC derivative) under the control of the Ptrc promoter. The resulting construct was cotransformed with OP80-PCC7942_1594 into E. coli MG1655 and the cells were grown at 37° C. in M9 minimal media supplemented with 100 μg/mL spectinomycin and 100 μg/mL carbenicillin. The cells were cultured and extracted as in Example 3 and analyzed by GC-MS as described in Example 1. […]

[3] = tested on: E. coli MG1655 ΔfadD lacZ::Ptrc-′tesA; assay: Decarbonylase expression in fatty aldehyde-producing E. coli strain expressing MSMEG_5739; conditions: coexpressed with M. smegmatis carboxylic acid reductase MSMEG_5739
[4] = enzyme expressed alone in E. coli MG1655

B1: ATCC51142 cce_1430: Cyanothece sp. ATCC51142 cce_1430, putative aldehyde-generating enzyme (protein, listed as Cyanothece sp.)
chain: MFGLIGHLTSLEHAHSVADAFGYGPYATQGLDLWCSAPPQFVEHFHVTSITGQTIEGKYIESAFLPEMLIKRRIKAAIRKILNAMAFAQKNNLNITALGGFSSIIFEEFNLKENRQVRNVSLEFDRFTTGNTHTAYIICRQVEQASAKLGIDLSQATVAICGATGDIGSAVCRWLDRKTDTQELFLIARNKERLQRLQDELGRGKIMGLEEALPEADIIVWVASMPKGVEINAETLKKPCLIIDGGYPKNLDTKIKHPDVHILKGGIVEHSLDIDWKIMETVNMDVPSRQMFACFAEAILLEFEQWHTNFSWGRNQITVTKMEQIGEASVKHGLQPLLSW
In the case of B1, the “production of fatty aldehydes and fatty alcohols” value (E. coli MG1655 [1]; [4]) is reported as “generates aldehydes in-vivo”.

B2: PCC7942 orf1594: Synechococcus elongatus PCC7942 orf1594, putative aldehyde-generating enzyme, named Acyl-ACP reductase (protein, listed as Synechococcus elongatus)
chain: MFGLIGHLTSLEQARDVSRRMGYDEYADQGLEFWSSAPPQIVDEITVTSATGKVIHGRYIESCFLPEMLAARRFKTATRKVLNAMSHAQKHGIDISALGGFTSIIFENFDLASLRQVRDTTLEFERFTTGNTHTAYVICRQVEAAAKTLGIDITQATVAVVGATGDIGSAVCRWLDLKLGVGDLILTARNQERLDNLQAELGRGKILPLEAALPEADFIVWVASMPQGVVIDPATLKQPCVLIDGGYPKNLGSKVQGEGIYVLNGGVVEHCFDIDWQIMSAAEMARPERQMFACFAEAMLLEFEGWHTNFSWGRNQITIEKMEAIGEASVRHGFQPLALAI
In the case of B2, the “production of fatty aldehydes and fatty alcohols” value (E. coli MG1655 [1]; [4]) is reported as “generates aldehydes in-vivo”.

B3: PMM0533: P. mariunus CCMP1986 PMM0533, putative aldehyde-generating enzyme (protein, listed as Prochlorococcus marinus)
chain: MFGLIGHSTSFEDAKRKASLLGFDHIADGDLDVWCTAPPQLVENVEVKSAIGISIEGSYIDSCFVPEMLSRFKTARRKVLNAMELAQKKGINITALGGFTSIIFENFNLLQHKQIRNTSLEWERFTTGNTHTAWVICRQLEMNAPKIGIDLKSATVAVVGATGDIGSAVCRWLINKTGIGELLLVARQKEPLDSLQKELDGGTIKNLDEALPEADIVVWVASMPKTMEIDANNLKQPCLMIDGGYPKNLDEKFQGNNIHVVKGGIVRFFNDIGWNMMELAEMQNPQREMFACFAEAMILEFEKCHTNFSWGRNNISLEKMEFIGAASVKHGFSAIGLDKHPKVLAV
In the case of B3, the “production of fatty aldehydes and fatty alcohols” value (E. coli MG1655 [1]; [4]) is reported as “did not produce any fatty aldehydes or fatty alcohols”.

B4: sll0209: Synechocystis sp. PCC6803 sll0209, acyl-ACP reductase (protein, listed as Synechocystis sp.)
chain: MFGLIGHLTSLEHAQAVAEDLGYPEYANQGLDFWCSAPPQVVDNFQVKSVTGQVIEGKYVESCFLPEMLTQRRIKAAIRKILNAMALAQKVGLDITALGGFSSIVFEEFNLKQNNQVRNVELDFQRFTTGNTHTAYVICRQVESGAKQLGIDLSQATVAVCGATGDIGSAVCRWLDSKHQVKELLLIARNRQRLENLQEELGRGKIMDLETALPQADIIVWVASMPKGVEIAGEMLKKPCLIVDGGYPKNLDTRVKADGVHILKGGIVEHSLDITWEIMKIVEMDIPSRQMFACFAEAILLEFEGWRTNFSWGRNQISVNKMEAIGEASVKHGFCPLVAL
For B4, the “production of fatty aldehydes and fatty alcohols” value (E. coli MG1655 [1]; enzyme expressed alone in E. coli MG1655 ΔfadE lacZ::Ptrc ′tesA-fadD (fatty acyl-CoA-producing)) was “did not produce any fatty aldehydes or fatty alcohols”.

B5: SEQ ID NO: 53: Synechococcus sp. RS9917 RS9917_12945, putative decarbonylase, codon optimized for E. coli (protein, listed as Synechococcus sp.)
chain: MTQLDFASAAYREAYSRINGVVIVGEGLANRHFQMLARRIPADRDELQRLGRMEGDHASAFVGCGRNLGVVADLPLARRLFQPLHDLFKRHDHDGNRAECLVIQGLIVECFAVAAYRHYLPVADAYARPITAAVMNDESEHLDYAETWLQRHFDQVKARVSAVVVEALPLTLAMLQSLAADMRQIGMDPVETLASFSELFREALESVGFEAVEARRLLMRAAARMV
With B5 the “Production of Alkanes and Alkenes” value (E. coli MG1655 [2]) was “yes”, the “fatty aldehyde decarbonylase activity in E. coli” value (E. coli MG1655 [2]) was “active fatty aldehyde decarbonylase” and the “conversion of fatty aldehydes provided by MSMEG_5739 to alkanes” value (“conversion of fatty aldehydes provided” below) [3] was “converted fatty aldehydes provided by MSMEG_5739 to the corresponding alkanes”.

B6: SEQ ID NO: 52: Synechococcus sp. RS9917 RS9917_09941, putative decarbonylase, codon optimized for E. coli (protein, listed as Synechococcus sp.)
chain: MPTLETSEVAVLEDSMASGSRLPDFTSEAYKDAYSRINAIVIEGEQEAHDNYIALGTLIPEQKDELARLARMEMKHMKGFTSCGRNLGVEADLPFAKEFFAPLHGNFQAALQEGKVVTCLLIQALLIEAFAISAYHIYIPVADPFARKITEGVVKDEYTHLNYGQEWLKANFEASKDELMEANKANLPLIRSMLEQVAADAAVLQMEKEDLIEDFLIAYQEALCEIGFSSRDIARMAAAALAV
In the case of B6, the “Production of Alkanes and Alkenes” value (E. coli MG1655 [2]) is reported as “yes”, the “fatty aldehyde decarbonylase activity in E. coli” value (E. coli MG1655 [2]) is reported as “active fatty aldehyde decarbonylase” and the “conversion of fatty aldehydes provided” value [3] is reported as “converted fatty aldehydes provided by MSMEG_5739 to the corresponding alkanes”.

B7: SEQ ID NO: 19: Prochlorococcus marinus CCMP1986 PMM0532, putative decarbonylase (protein, listed as Prochlorococcus marinus)
chain: MQTLESNKKTNLENSIDLPDFTTDSYKDAYSRINAIVIEGEQEAHDNYISLATLIPNELEELTKLAKMELKHKRGFTACGRNLGVQADMIFAKEFFSKLHGNFQVALSNGKTTTCLLIQAILIEAFAISAYHVYIRVADPFAKKITQGVVKDEYLHLNYGQEWLKENLATCKDELMEANKVNLPLIKKMLDQVSEDASVLAMDREELMEEFMIAYQDTLLEIGLDNREIARMAMAAIV
For B7, the “Production of Alkanes and Alkenes” value (E. coli MG1655 [2]) was “yes”, the “fatty aldehyde decarbonylase activity in E. coli” value (E. coli MG1655 [2]) was “active fatty aldehyde decarbonylase” and the “conversion of fatty aldehydes provided” value [3] was “converted fatty aldehydes provided by MSMEG_5739 to the corresponding alkanes”.
